According to patent US20170275368A1 (Hoffmann-La Roche, published 2017):
Like-named read-outs stand apart in the source and are kept apart here.

B1: <CSF-1R>7G5.3B6 (antibody, V domains shown)
VH: EIQLQQSGPELVKPGASVRVSCKPSGYSFTDYNMYWVRQSHGKSLDWIGYIDPYNGGTTYNQKFRGKATLTVDKSSSTAFMHLNSLTSEDSAVYYCARGGDEYYFDYWGQGTTLTVSS
VL: DIVMSQSPSSLAVSVGEKVTMSCKSSQSLLDSRNQKNYLAWYQQKPGQSPKLLIYWASTRESGVPDRFTGSGSGTDFTLTISSVKAEDLAVYYCQQYYSYPPTFGGGTKLEIKR
notes: Mouse monoclonal antibody from hybridoma DSM ACC2921 (NMRI mice), tested as purified hybridoma antibody; also called deposited antibody DSM ACC2921

How the values were obtained:
[1] = target: CSF-1R ECD (R&D-Systems 329-MR or in-house subcloned pCMV-presS-HisAvitag-hCSF-1R-ECD) (human) (UniProt P07333); experiment: SPR (BIACORE A100) at 35 C; antibody captured, CSF-1R ECD in solution; Langmuir 1:1
[2] = target: mutant CSF-1R L301S Y969F (human) (UniProt P07333); experiment: cell-based or functional assay
[3] = target: T1, full-length wildtype CSF-1R (wt CSF-1R) (human, UniProt P07333 20-972); experiment: cell-based or functional assay
[4] = target: huCSF-1R-huFc chimera (soluble extracellular domain) (human) (UniProt P07333); experiment: competition ELISA: inhibition of CSF-1 binding to immobilised huCSF-1R-huFc chimera
[5] = target: CSF-1R (R&D-Systems Cat. No. 329-MR) (human) (UniProt P07333); experiment: SPR cross-competition at 25 C; response of Antibody 2 on CSF-1R held by captured Antibody 1; competitor SC-02, clone 2-4A5 (Antibody 1, same antibody)
[6] = target: CSF-1R (R&D-Systems Cat. No. 329-MR) (human) (UniProt P07333); experiment: SPR cross-competition at 25 C; response of Antibody 2 on CSF-1R held by captured Antibody 1; competitor <CSF-1R>7G5.3B6 (Antibody 1)
[7] = target: T2, huCSF-1R-huFc chimera (soluble extracellular domain) (human, UniProt P07333 20-517); experiment: competition ELISA: inhibition of CSF-1 binding to immobilised huCSF-1R-huFc chimera
T2 construct: also called huCSF-1R ECDhuFc chimera; not shown: human Fc part
Method: At the beginning, plates were coated with […] goat F(ab′)₂ biotinylated anti Fcγ (Jackson ImmunoResearch., Cat. No. 109-006-170) for 1 hour (h).
Thereafter the wells were blocked with PBS supplemented with 0.2% TWEEN®-20 and 2% BSA (Roche Diagnostics GmbH, DE) for 0.5 h. 75 ng/ml of huCSF-1R-huFc chimera (soluble extracellular domain) was immobilized to plate for 1 h. Then dilutions of purified antibodies in PBS/0.05% Tween20/0.5% BSA were incubated for 1 h. After adding a mixture of 3 ng/ml CSF-1 (Biomol, DE, Cat. No. 60530), 50 ng/ml biotinylated anti CSF-1 clone BAF216 (R&D Systems, UK) and 1:5000 diluted streptavidin HRP (Roche Diagnostics GmbH, DE, Cat. No. 11089153001) for 1 h the plates were washed 6 times with PBST. Anti CSF-IR SC-02, clone 2-4A5 (Santa Cruz Biotechnology, ITS), which inhibits the ligand-receptor interaction, was used as positive control. Plates were developed with freshly prepared BM BLUE® POD substrate solution (BM BLUE®: 3,3′-5,5′-Tetramethylbenzidine, Roche Diagnostics GmbH, DE, Cat. No. 11484281001) for 30 minutes at RT. Absorbance was measured at 370 nm. […] Anti CSF-1R SC-02, clone 2-4A5 (Santa Cruz Biotechnology, US), which inhibits the ligand-receptor interaction, was used as reference control.

[8] = target: T1, full-length wildtype CSF-1R (wt CSF-1R); experiment: cell-based or functional assay; remark: listed apart in the source
[9] = target: CSF-1R ECD (R&D-Systems 329-MR or in-house subcloned pCMV-presS-HisAvitag-hCSF-1R-ECD) (human, UniProt P07333 20-517); experiment: SPR (BIACORE A100) at 35 C; antibody captured by anti mouse Fc gamma, CSF-1R ECD in solution; Langmuir 1:1
Method: CSF-1R ECD (R&D-Systems 329-MR or in-house subcloned pCMV-presS-HisAvitag-hCSF-1R-ECD were added in various concentrations in solution. Association was measured by an CSF-1R-injection of 1.5 minutes at 35° C.; dissociation was measured by washing the chip surface with buffer for 10 minutes at 35° C. Anti CSF-IR SC-02, clone 2-4A5 (Santa Cruz Biotechnology, US; see also Sherr, C. J., et al., Cell 41 (1985) 665-676), which inhibits the ligand-receptor interaction, was used as reference control.

[10] = target: T1, full-length wildtype CSF-1R (wt CSF-1R); experiment: cell-based or functional assay; remark: listed apart in the source

T1 sequence (P07333 20-972 limits assumed): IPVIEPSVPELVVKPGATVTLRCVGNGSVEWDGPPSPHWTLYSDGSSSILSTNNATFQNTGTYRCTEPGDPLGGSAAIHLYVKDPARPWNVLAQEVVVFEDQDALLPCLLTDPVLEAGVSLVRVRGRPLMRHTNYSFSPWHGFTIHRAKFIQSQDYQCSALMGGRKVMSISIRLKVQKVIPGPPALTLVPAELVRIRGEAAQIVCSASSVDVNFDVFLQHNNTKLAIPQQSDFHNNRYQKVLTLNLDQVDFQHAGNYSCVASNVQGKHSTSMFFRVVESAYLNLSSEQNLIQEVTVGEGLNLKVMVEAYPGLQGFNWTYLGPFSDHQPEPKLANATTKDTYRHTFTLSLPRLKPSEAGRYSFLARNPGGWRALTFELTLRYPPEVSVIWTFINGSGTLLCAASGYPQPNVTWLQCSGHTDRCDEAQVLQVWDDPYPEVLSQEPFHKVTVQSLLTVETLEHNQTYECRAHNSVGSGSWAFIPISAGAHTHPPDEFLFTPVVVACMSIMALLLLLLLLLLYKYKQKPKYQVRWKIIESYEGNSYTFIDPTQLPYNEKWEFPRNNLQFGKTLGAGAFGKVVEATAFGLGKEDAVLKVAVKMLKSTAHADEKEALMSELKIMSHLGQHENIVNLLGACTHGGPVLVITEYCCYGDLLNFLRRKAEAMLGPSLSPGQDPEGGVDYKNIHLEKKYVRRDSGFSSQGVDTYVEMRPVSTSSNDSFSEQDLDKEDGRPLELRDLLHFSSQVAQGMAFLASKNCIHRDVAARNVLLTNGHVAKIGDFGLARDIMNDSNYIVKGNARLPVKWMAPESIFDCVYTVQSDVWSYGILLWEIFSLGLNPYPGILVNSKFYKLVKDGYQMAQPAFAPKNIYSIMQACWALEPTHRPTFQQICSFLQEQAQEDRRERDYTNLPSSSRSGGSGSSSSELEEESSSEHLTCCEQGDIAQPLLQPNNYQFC
CSF-1R ECD (R&D-Systems 329-MR or in-house subcloned pCMV-presS-HisAvitag-hCSF-1R-ECD), sequence (P07333 20-517 limits assumed): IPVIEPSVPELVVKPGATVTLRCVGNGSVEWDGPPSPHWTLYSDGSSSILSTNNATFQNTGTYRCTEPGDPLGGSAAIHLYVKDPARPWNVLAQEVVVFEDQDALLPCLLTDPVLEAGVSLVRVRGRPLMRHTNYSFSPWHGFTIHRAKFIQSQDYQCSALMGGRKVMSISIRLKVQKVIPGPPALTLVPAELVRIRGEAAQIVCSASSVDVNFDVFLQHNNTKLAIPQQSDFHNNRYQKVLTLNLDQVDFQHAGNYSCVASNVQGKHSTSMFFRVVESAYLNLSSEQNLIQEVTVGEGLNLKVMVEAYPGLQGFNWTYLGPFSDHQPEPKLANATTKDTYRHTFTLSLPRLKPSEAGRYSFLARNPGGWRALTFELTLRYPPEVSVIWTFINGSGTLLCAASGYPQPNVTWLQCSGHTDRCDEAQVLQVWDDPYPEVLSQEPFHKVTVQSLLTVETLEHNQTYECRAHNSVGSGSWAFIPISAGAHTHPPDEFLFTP
CSF-1R ECD (R&D-Systems 329-MR or in-house subcloned pCMV-presS-HisAvitag-hCSF-1R-ECD) (human), sequence (P07333 20-517 limits assumed): as above
CSF-1R (R&D-Systems Cat. No. 329-MR) (human), sequence (P07333 20-517 limits assumed): as above
T2 sequence (P07333 20-517, change not shown): as the sequence (P07333 20-517 limits assumed) above
huCSF-1R-huFc chimera (soluble extracellular domain) (human), sequence (P07333 20-517, change not shown): as the sequence (P07333 20-517 limits assumed) above
mutant CSF-1R L301S Y969F (human), sequence (P07333 20-972 L301S/Y969F limits assumed): as the sequence (P07333 20-972 limits assumed) above, with L282S, Y950F counted along it

Molecule | Kd [1] [nM] | koff [1] [s⁻¹] | kon [1] [M⁻¹ s⁻¹] | t1/2 [1] [min] | % survival of NIH3T3 cells expressing mutant CSF-1R L301S Y969F, 10 ug/ml antibody (…-GLO) [2] [%] | % inhibition of CSF-1 induced growth of BeWo tumor cells, 10 ug/ml antibody concentration [3] [%] | % survival of NIH3T3 cells expressing wt CSF-1R, 10 ug/ml antibody (…-GLO) [3] [%] | IC50 CSF-1R Phosphorylation [3] [µg/mL] | IC50 [nM] of inhibition of monocyte survival (…-GLO) [3] [nM] | IC50 [4] [µg/mL] | percentage (%) of expected binding response [5] [%] | percentage (%) of expected binding response [6] [%] | IC50 [7] [µg/mL] | IC50 [nM] of inhibition of monocyte survival (…-GLO) [8] [nM] | Kd [9] [nM] | koff [9] [s⁻¹] | kon [9] [M⁻¹ s⁻¹] | t1/2 [9] [min] | IC50 CSF-1R Phosphorylation [10] [µg/mL]
Anti CSF-1R SC-02, clone 2-4A5 (Santa Cruz Biotechnology) (antibody) | 2.73 | 0.00139 | 509000 | 8.31 | 66 | 40 | 62 | 0.412 | 2.4 | 0.0309 | -2 | 36 | – | – | – | – | – | – | –
B1 | – | – | – | – | – | – | – | – | – | – | – | – | 0.0188 | 0.4 | 0.61 | 0.0049 | 8e+06 | 2.37 | < 0.011
